Experimental data taken from article PMC3202338.

Experiments:
[1] = target: IS_helix; test: ITC
[2] = target: alternative design: trunc-WT_IS-2 domain (PAK1 residues 87–137) inserted into CFP with glycine-serine linkers [GFP: P42212]; test: ITC
[3] = target: CFP-PAcKer [GFP: P42212]; test: ITC
[4] = target: WT_IS domain (residue 83–137 in full-length PAK1 sequence) (UniProt Q13153); test: ITC
[5] = target: IS_hairpin; test: ITC
[6] = target: mero-CFP-PAcKer [GFP: P42212]; test: other fluorescence titration
[7] = target: Bodipy conjugated IS_helix (Ser-36 mutated to cysteine); test: fluorescence polarisation

Substance “PAK1 kinase domain (K298R mutant), residues 250–545 (from UniProt Q13153 250-545) (domain or fragment)” has a Kd [1] of 1600 nM, a Kd [2] of 1650 nM and a Kd [3] of 400 nM. For the same substance, the Kd [4] was 4000 nM, the Kd [5] was 2600 nM and the Kd [6] was 600 nM. For the same substance, the Kd [7] was 15000 nM.
With “PAK1^V127E/S144E (full-length PAK1 stabilized in the 'open' state, kinase dead K298R) (from UniProt Q13153 1-545) (enzyme)” the Kd [3] was 3300 nM.
